Results on one molecule are retold here after US20240218079A1, “PLASMA KALLIKREIN ANTIBODIES AND USES THEREOF” (Astria Therapeutics, Inc., priority 2021, published 2024).

Assay [1] has as its target human plasma kallikrein (human) (UniProt P03952).
The target is the same in assay [2]. The source holds these as a separate data set.

Chain of human plasma kallikrein (human) (P03952 20-390 S143N limits assumed, chain 1 of 2): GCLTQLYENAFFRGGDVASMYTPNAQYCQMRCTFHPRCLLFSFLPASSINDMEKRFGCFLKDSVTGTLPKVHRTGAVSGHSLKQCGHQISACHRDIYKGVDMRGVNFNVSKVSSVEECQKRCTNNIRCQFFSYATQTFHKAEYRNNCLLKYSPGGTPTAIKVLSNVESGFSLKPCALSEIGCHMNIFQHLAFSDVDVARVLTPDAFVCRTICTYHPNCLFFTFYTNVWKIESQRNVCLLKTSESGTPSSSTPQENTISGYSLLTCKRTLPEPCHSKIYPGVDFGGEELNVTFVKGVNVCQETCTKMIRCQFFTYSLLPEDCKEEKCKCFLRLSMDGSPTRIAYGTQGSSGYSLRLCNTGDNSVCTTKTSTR
Chain of human plasma kallikrein (human) (P03952 391-638 limits assumed, chain 2 of 2): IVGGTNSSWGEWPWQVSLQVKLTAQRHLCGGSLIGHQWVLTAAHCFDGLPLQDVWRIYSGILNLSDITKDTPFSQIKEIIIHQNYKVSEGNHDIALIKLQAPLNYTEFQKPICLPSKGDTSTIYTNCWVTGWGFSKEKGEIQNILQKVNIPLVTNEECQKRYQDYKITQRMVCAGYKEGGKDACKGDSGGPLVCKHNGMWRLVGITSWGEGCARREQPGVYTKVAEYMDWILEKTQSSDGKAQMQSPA

B1: C1inh (protein, UniProt P05155 23-500, looked up, species assumed)
Plasma protease C1 inhibitor: NPNATSSSSQDPESLQDRGEGKVATTVISKMLFVEPILEVSSLPTTNSTTNSATKITANTTDEPTTQPTTEPTTQPTIQPTQPTTQLPTDSPTQPTTGSFCPGPVTLCSDLESHSTEAVLGDALVDFSLKLYHAFSAMKKVETNMAFSPFSIASLLTQVLLGAGENTKTNLESILSYPKDFTCVHQALKGFTTKGVTSVSQIFHSPDLAIRDTFVNASRTLYSSSPRVLSNNSDANLELINTWVAKNTNNKISRLLDSLPSDTRLVLLNAIYLSAKWKTTFDPKKTRMEPFHFKNSVIKVPMMNSKKYPVAHFIDQTLKAKVGQLQLSHNLSLVILVPQNLKHRLEDMEQALSPSVFKAIMEKLEMSKFQPTLLTLPRIKVTTSQDMLSIMEKLEFFDFSYDLNLCGLTEDPDLQVSAMQHQTVLELTETGVEAAAASAISVARTLLVFEVQQPFLFVLWDQQHKFPVFMGRVYDPRA
Regarding B1, the IC50 (read off the curve) in assay [1] was 3 nM. In assay [2], the IC50 (read off the curve), lower panel, 10 nM pKal came out at 1e-08 M and the IC50 (read off the curve), upper panel, 1 nM pKal was found to be 4e-09 M.
